# Assay results: patent publication US20230002480A1
# Assays:
# Test in all cases: cell-based or functional assay
# [1] = target: HIV-1 Env of pseudovirus 928-28 (HIV-1)
# [2] = target: HIV-1 Env of pseudovirus X2088_c9 (HIV-1)
# [3] = target: HIV-1 Env of pseudovirus 0815.v3.c3 (HIV-1)
# [4] = target: HIV-1 Env of pseudovirus 231966.c02 (HIV-1)
# [5] = target: HIV-1 Env of pseudovirus T278-50 (HIV-1)
# [6] = target: HIV-1 Env of pseudovirus X1254_c3 (HIV-1)
# [7] = target: HIV-1 Env of pseudovirus C4118.c09 (HIV-1)
# [8] = target: HIV-1 Env of pseudovirus 235-47 (HIV-1)
# [9] = target: HIV-1 Env of pseudovirus P0402_c2_11 (HIV-1)
# [10] = target: HIV-1 Env of pseudovirus 263-8 (HIV-1)
# [11] = target: HIV-1 Env of pseudovirus BJOX009000.02.4 (HIV-1)
# [12] = target: HIV-1 Env of pseudovirus 191955_A11 (HIV-1)
# [13] = target: HIV-1 Env of pseudovirus T250-4 (HIV-1)
# [14] = target: HIV-1 Env of pseudovirus Q461.e2 (HIV-1)
# [15] = target: HIV-1 Env of pseudovirus Q259.d2.17 (HIV-1)
# [16] = target: HIV-1 Env of pseudovirus ZM247v1(Rev-) (HIV-1)
# [17] = target: HIV-1 Env of pseudovirus MS208.A1 (HIV-1)
# [18] = target: HIV-1 Env of pseudovirus 1054_07_TC4_1499 (HIV-1)
# [19] = target: HIV-1 Env of pseudovirus PVO.4 (HIV-1)
# [20] = target: HIV-1 Env of pseudovirus CAAN5342.A2 (HIV-1)
# [21] = target: HIV-1 Env of pseudovirus WEAU_d15_410_787 (HIV-1)
# [22] = target: HIV-1 Env of pseudovirus HIV-0013095-2.11 (HIV-1)
# [23] = target: HIV-1 Env of pseudovirus ZM233M.PB6 (HIV-1)
# [24] = target: HIV-1 Env of pseudovirus ZM135M.PL10a (HIV-1)
# [25] = target: HIV-1 Env of pseudovirus 246F C1G (HIV-1)
# [26] = target: HIV-1 Env of pseudovirus AC10.0.29 (HIV-1)
# [27] = target: HIV-1 Env of pseudovirus 6240_08_TA5_4622 (HIV-1)
# [28] = target: HIV-1 Env of pseudovirus Ce704809221_1B3 (HIV-1)
# [29] = target: HIV-1 Env of pseudovirus 6535.3 (HIV-1)
# [30] = target: HIV-1 Env of pseudovirus Du156.12 (HIV-1)
# [31] = target: HIV-1 Env of pseudovirus Ce1172_H1 (HIV-1)
# [32] = target: HIV-1 Env of pseudovirus RHPA4259.7 (HIV-1)
# [33] = target: HIV-1 Env of pseudovirus Ce703010054_2A2 (HIV-1)
# [34] = target: HIV-1 Env of pseudovirus CAP45.2.00.G3 (HIV-1)
substance,measurement,setting,value
N49P11 (antibody),IC50,[1],5.46 µg/mL
same,IC80,[1],25 µg/mL
same,MPI,[1],100
same,IC50,[2],6.82 µg/mL
same,IC80,[2],22 µg/mL
same,MPI,[2],100
same,IC50,[3],0.106 µg/mL
same,IC80,[3],0.372 µg/mL
same,MPI,[3],100
same,IC50,[4],4.31 µg/mL
same,IC80,[4],16 µg/mL
same,MPI,[4],100
same,IC50,[5],7.63 µg/mL
same,IC80,[5],25.1 µg/mL
same,MPI,[5],100
same,IC50,[6],5.99 µg/mL
same,IC80,[6],20.7 µg/mL
same,MPI,[6],100
same,IC50,[7],0.094 µg/mL
same,IC80,[7],0.346 µg/mL
same,MPI,[7],100
same,IC50,[8],3.88 µg/mL
same,IC80,[8],21.2 µg/mL
same,MPI,[8],100
same,IC50,[9],0.091 µg/mL
same,IC80,[9],0.698 µg/mL
same,MPI,[9],100
same,IC50,[10],0.064 µg/mL
same,IC80,[10],0.259 µg/mL
same,MPI,[10],100
same,IC50,[11],2.84 µg/mL
same,IC80,[11],10.6 µg/mL
same,MPI,[11],100
same,IC50,[12],2.74 µg/mL
same,IC80,[12],15.3 µg/mL
same,MPI,[12],100
same,IC50,[13],6.28 µg/mL
same,IC80,[13],25.6 µg/mL
same,MPI,[13],100
N49P18.1 (antibody),IC50,[1],22.7 µg/mL
same,IC80,[1],> 50 µg/mL
same,MPI,[1],71
same,IC50,[2],9.08 µg/mL
same,IC80,[2],34.9 µg/mL
same,MPI,[2],88
same,IC50,[3],0.741 µg/mL
same,IC80,[3],8.45 µg/mL
same,MPI,[3],99
same,IC50,[4],29.9 µg/mL
same,IC80,[4],> 50 µg/mL
same,MPI,[4],67
same,IC50,[5],> 50 µg/mL
same,IC80,[5],> 50 µg/mL
same,MPI,[5],36
same,IC50,[6],24.8 µg/mL
same,IC80,[6],> 50 µg/mL
same,MPI,[6],61
same,IC50,[7],8.63 µg/mL
same,IC80,[7],23.2 µg/mL
same,MPI,[7],93
same,IC50,[8],23 µg/mL
same,IC80,[8],> 50 µg/mL
same,MPI,[8],66
same,IC50,[9],5.47 µg/mL
same,IC80,[9],20.8 µg/mL
same,MPI,[9],98
same,IC50,[10],3.96 µg/mL
same,IC80,[10],41 µg/mL
same,MPI,[10],90
same,IC50,[11],0.418 µg/mL
same,IC80,[11],1.43 µg/mL
same,MPI,[11],100
same,IC50,[12],> 50 µg/mL
same,IC80,[12],> 50 µg/mL
same,MPI,[12],33
same,IC50,[13],4.86 µg/mL
same,IC80,[13],15.1 µg/mL
same,MPI,[13],94
VRC01 (antibody),"IC50, titer in TZM.bl cells",[1],0.41 µg/mL
same,"IC80, titer in TZM.bl cells",[1],1.7 µg/mL
same,"IC50, titer in TZM.bl cells",[14],0.49 µg/mL
same,"IC80, titer in TZM.bl cells",[14],1.6 µg/mL
same,"IC50, titer in TZM.bl cells",[15],0.17 µg/mL
same,"IC80, titer in TZM.bl cells",[15],0.54 µg/mL
same,"IC50, titer in TZM.bl cells",[2],> 50 µg/mL
same,"IC80, titer in TZM.bl cells",[2],> 50 µg/mL
same,"IC50, titer in TZM.bl cells",[16],0.35 µg/mL
same,"IC80, titer in TZM.bl cells",[16],1.29 µg/mL
same,"IC50, titer in TZM.bl cells",[3],0.06 µg/mL
same,"IC80, titer in TZM.bl cells",[3],0.13 µg/mL
same,"IC50, titer in TZM.bl cells",[17],0.1 µg/mL
same,"IC80, titer in TZM.bl cells",[17],0.46 µg/mL
same,"IC50, titer in TZM.bl cells",[18],0.71 µg/mL
same,"IC80, titer in TZM.bl cells",[18],2.85 µg/mL
same,"IC50, titer in TZM.bl cells",[19],0.22 µg/mL
same,"IC80, titer in TZM.bl cells",[19],1.2 µg/mL
same,"IC50, titer in TZM.bl cells",[20],0.82 µg/mL
same,"IC80, titer in TZM.bl cells",[20],2.8 µg/mL
same,"IC50, titer in TZM.bl cells",[21],0.12 µg/mL
same,"IC80, titer in TZM.bl cells",[21],0.26 µg/mL
same,"IC50, titer in TZM.bl cells",[22],0.11 µg/mL
same,"IC80, titer in TZM.bl cells",[22],0.33 µg/mL
same,"IC50, titer in TZM.bl cells",[5],> 50 µg/mL
same,"IC80, titer in TZM.bl cells",[5],> 50 µg/mL
same,"IC50, titer in TZM.bl cells",[23],2 µg/mL
same,"IC80, titer in TZM.bl cells",[23],9.3 µg/mL
same,"IC50, titer in TZM.bl cells",[24],0.35 µg/mL
same,"IC80, titer in TZM.bl cells",[24],2.7 µg/mL
same,"IC50, titer in TZM.bl cells",[6],0.07 µg/mL
same,"IC80, titer in TZM.bl cells",[6],0.19 µg/mL
same,"IC50, titer in TZM.bl cells",[8],0.04 µg/mL
same,"IC80, titer in TZM.bl cells",[8],0.17 µg/mL
same,"IC50, titer in TZM.bl cells",[9],0.21 µg/mL
same,"IC80, titer in TZM.bl cells",[9],0.59 µg/mL
same,"IC50, titer in TZM.bl cells",[25],> 10 µg/mL
same,"IC80, titer in TZM.bl cells",[25],> 10 µg/mL
same,"IC50, titer in TZM.bl cells",[26],2.2 µg/mL
same,"IC80, titer in TZM.bl cells",[26],6.5 µg/mL
same,"IC50, titer in TZM.bl cells",[27],0.61 µg/mL
same,"IC80, titer in TZM.bl cells",[27],1.82 µg/mL
same,"IC50, titer in TZM.bl cells",[10],0.2 µg/mL
same,"IC80, titer in TZM.bl cells",[10],0.55 µg/mL
same,"IC50, titer in TZM.bl cells",[28],0.55 µg/mL
same,"IC80, titer in TZM.bl cells",[28],2.05 µg/mL
same,"IC50, titer in TZM.bl cells",[29],0.54 µg/mL
same,"IC80, titer in TZM.bl cells",[29],2.7 µg/mL
same,"IC50, titer in TZM.bl cells",[30],0.09 µg/mL
same,"IC80, titer in TZM.bl cells",[30],0.193 µg/mL
same,"IC50, titer in TZM.bl cells",[31],> 10 µg/mL
same,"IC80, titer in TZM.bl cells",[31],> 10 µg/mL
same,"IC50, titer in TZM.bl cells",[32],0.06 µg/mL
same,"IC80, titer in TZM.bl cells",[32],0.185 µg/mL
same,"IC50, titer in TZM.bl cells",[13],> 50 µg/mL
same,"IC80, titer in TZM.bl cells",[13],> 50 µg/mL
same,"IC50, titer in TZM.bl cells",[33],0.53 µg/mL
same,"IC80, titer in TZM.bl cells",[33],1.84 µg/mL
same,"IC80, titer in TZM.bl cells",[34],> 50 µg/mL
